Experiments:
[1] = target: protein kinase A; assay: cell-based or functional assay
[2] = tested on: T1, Src-1 optical probe (GEEEIYGEIEK, SEQ. ID. NO: 3)
T1 sequence: GEEEIYGEIEK

[3] = tested on: T2, Src-2 optical probe (GEEEIYGVIEK, SEQ. ID. NO: 29), non-phosphorylated
T2 sequence: GEEEIYGVIEK

[4] = tested on: T3, phosphorylated abl-specific substrate optical probe (SEQ. I.D. No. 4)
T3 sequence: AEAIYAAPLK

[5] = tested on: T4, phosphorylated Src-2-specific substrate optical probe (SEQ. ID. NO: 29)
T4 sequence: RRFHSRRRR

[6] = target: T5, abl-specific substrate optical probe (AEAIYAAPL, SEQ. ID. NO: 4), non-phosphorylated
T5 chain: AEAIYAAPLK

## PKI (substrate competitive inhibitor of protein kinase A) (peptide)
[1]
  460/530 Emission Ratio, Kinase + the inhibitor PKI (2.8 µM) (negative control 11.67, positive control 2.11) (460/530 emission ratio): 11.7

## Src kinase (Upstate Biotechnology)
[2]
  apparent Km (fluorescence measurements after protease incubation): 11 µM and 19 µM respectively
[3]
  apparent Km (fluorescence measurements after protease incubation): 11 µM and 19 µM respectively

## protein tyrosine phosphatase-B (PTP-B) agarose (Upstate Biotechnology)
[4]
  relative rate of dephosphorylation: the Src-2 substrate is more readily de-phosphorylated than the abl substrate
[5]
  Kcat/Km (dephosphorylation): nearly 10^8 M^-1sec^-1
  apparent Km (Michaelis-Menten plot, dephosphorylation): the apparent Km for the Src-2optical probe is 1.3 µM
  kcat (dephosphorylation): the kcat is 79 sec^-1
  relative rate of dephosphorylation: the Src-2 substrate is more readily de-phosphorylated than the abl substrate

B1: Recombinant v-Abl kinase (protein)
chain: YITPVNSLEKHSWYHGPVSRNAAEYLLSSGINGSFLVRESESSPGQRSISLRYEGRVYHYRINTASDGKLYVSSESRFNTLAELVHHHSTVADGLITTLHYPAPKRNKPTIYGVSPNYDKWEMERTDITMKHKLGGGQYGEVYEGVWKKYSLTVAVKTLKEDTMEVEEFLKEAAVMKEIKHPNLVQLLGVCTREPPFYIITEFMTYGNLLDYLRECNRQEVSAVVLLYMATQISSAMEYLEKKNFIHRDLAARNCLVGENHLVKVADFGLSRLMTGDTYTAHAGAKFPIKWTAPESLAYNKFSIKSDVWAFGVLLWEIATYGMSPYPGIDLSQVYELLEKDYRMERPEGCPEKVYELMRACWQWNPSDRPSFAEIHQAFETMFQESSISDEVEKELGKRGTRG
[6]
  apparent Km for the substrate (kinetics of phosphorylation, FRET/chymotrypsin read-out): apparent Km for the substrate of 40 µM
  turnover (kcat) of the optical probe: The turnover of the optical probe by v-Abl was 9.5 sec^-1

— patent publication US20030087328A1
